Biological target: streptavidin AF488 (Streptomyces avidinii, UniProt P22629)
Experiment: Degradation of a target protein using an LRP1 binding motif
Format: cell-based
Details: FIG. 12
Excerpt: Some studies have been done on other bifunctional molecules comprising an LRP1 binding motif depicted in FIG. 2 and a biotin Target binding motif, wherein these bifunctional molecules also noncovalently bind streptavidin (FIG. 11).

Sequence of streptavidin AF488 (P22629 25-183): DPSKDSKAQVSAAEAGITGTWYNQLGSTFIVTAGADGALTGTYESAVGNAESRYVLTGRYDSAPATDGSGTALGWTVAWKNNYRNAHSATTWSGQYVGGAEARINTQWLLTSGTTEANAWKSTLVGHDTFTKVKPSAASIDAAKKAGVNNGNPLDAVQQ

For “Ac.Ac.Biotin Angiopep-2: "the Ac.Ac.Biotin Angiopep-2 mediated degradation of streptavidin AF488"”, the “degradation of streptavidin AF488” value was “mediated degradation of streptavidin AF488”.

Source: patent US20240181067A1, “TARGETED BIFUNCTIONAL DEGRADERS AND METHODS USING SAME” (YALE UNIVERSITY, priority 2021, published 2024)
